The data set relates to Escherichia coli TOP10. Briefly: shrunken log2 fold change of peptide-encoding DNA abundance (4.5 h post-induction vs induction); higher = less antimicrobial activity (less host growth inhibition). The settings on record: time post-induction: 4.5 h; library: site-saturation at positions 5, 18, 19, 20.
As for RRIRPRPPRLPRPRPRPLDGPRP, the “shrunken log2 fold change” value turned out to be 0.0208.

RRIRSRPPRLPRPRPRPPFNPRP: the “shrunken log2 fold change” value was -0.298. The result for RRIRYRPPRLPRPRPRPPNFPRP reads 0.0401. RRIRARPPRLPRPRPRPMHQPRP: the “shrunken log2 fold change” value stood at 0.0908. With RRIRQRPPRLPRPRPRPKTKPRP, the “shrunken log2 fold change” value was -0.254. For RRIRSRPPRLPRPRPRPDHKPRP, the “shrunken log2 fold change” value was -0.18.

With RRIRERPPRLPRPRPRPILQPRP, the “shrunken log2 fold change” value was -0.518. For RRIRARPPRLPRPRPRPHFYPRP, the “shrunken log2 fold change” value amounted to 0.107. Regarding RRIRHRPPRLPRPRPRPQTQPRP, the “shrunken log2 fold change” value was -0.145. Turning to RRIRSRPPRLPRPRPRPTANPRP, the “shrunken log2 fold change” value amounted to 0.293. As for RRIRARPPRLPRPRPRPNTIPRP, the “shrunken log2 fold change” value is -0.0317. Turning to RRIRVRPPRLPRPRPRPPRVPRP, the “shrunken log2 fold change” value was 0.305. In the case of RRIRPRPPRLPRPRPRPCEHPRP it was 0.099. With RRIRKRPPRLPRPRPRPSCPPRP, the “shrunken log2 fold change” value was -0.0238.

Turning to RRIRIRPPRLPRPRPRPPVGPRP, the “shrunken log2 fold change” value came out at 0.59.

In the case of RRIRERPPRLPRPRPRPITLPRP, the “shrunken log2 fold change” value came out at 0.0653. Turning to RRIRHRPPRLPRPRPRPWHFPRP, the “shrunken log2 fold change” value was -0.0331. Consider RRIRMRPPRLPRPRPRPHSEPRP, for which the “shrunken log2 fold change” value is 0.134. RRIRLRPPRLPRPRPRPVGNPRP: the “shrunken log2 fold change” value turned out to be 0.0885.

For RRIRCRPPRLPRPRPRPTKFPRP, the “shrunken log2 fold change” value is -0.305. With RRIRRRPPRLPRPRPRPWMAPRP, the “shrunken log2 fold change” value was 0.0421. In the case of RRIRPRPPRLPRPRPRPFTYPRP it was -0.0519; in that of RRIRVRPPRLPRPRPRPNLRPRP, 0.0738; in that of RRIRDRPPRLPRPRPRPWSNPRP, -0.678. For the sequence RRIRHRPPRLPRPRPRPHCLPRP, the “shrunken log2 fold change” value is -0.777. Take RRIRARPPRLPRPRPRPHTHPRP: the “shrunken log2 fold change” value is -0.175. The result for RRIRQRPPRLPRPRPRPECTPRP reads 0.0484.

For RRIRHRPPRLPRPRPRPGPLPRP, the “shrunken log2 fold change” value stood at 0.0825. Consider RRIRMRPPRLPRPRPRPFVRPRP, for which the “shrunken log2 fold change” value is -0.01.

As for RRIRVRPPRLPRPRPRPQAYPRP, the “shrunken log2 fold change” value is -0.00917. The result for RRIRMRPPRLPRPRPRPICIPRP reads 0.0141. For RRIRKRPPRLPRPRPRPAWIPRP, the “shrunken log2 fold change” value stood at 0.0453. Consider RRIRCRPPRLPRPRPRPMAMPRP, for which the “shrunken log2 fold change” value is 0.106. In the case of RRIRLRPPRLPRPRPRPKCWPRP it was 0.323; in that of RRIRERPPRLPRPRPRPQNDPRP, -0.551; in that of RRIRQRPPRLPRPRPRPHSQPRP, 0.0419. On to RRIRQRPPRLPRPRPRPGHTPRP, for which the “shrunken log2 fold change” value was determined as 0.0169. As to RRIRNRPPRLPRPRPRPIGDPRP, the “shrunken log2 fold change” value is -0.0116.

RRIRMRPPRLPRPRPRPFRRPRP: the “shrunken log2 fold change” value was -0.117.

As to RRIRKRPPRLPRPRPRPCTVPRP, the “shrunken log2 fold change” value stood at 0.23. Turning to RRIRMRPPRLPRPRPRPMLFPRP, the “shrunken log2 fold change” value stood at 0.138. For the sequence RRIRNRPPRLPRPRPRPATTPRP, the “shrunken log2 fold change” value was 0.272. For RRIRIRPPRLPRPRPRPSKAPRP, the “shrunken log2 fold change” value was -0.176.

Take RRIRMRPPRLPRPRPRPHDQPRP: the “shrunken log2 fold change” value was found to be 0.351. In the case of RRIRCRPPRLPRPRPRPTFTPRP it was -0.416; in that of RRIRRRPPRLPRPRPRPHILPRP, -0.68.

As to RRIRPRPPRLPRPRPRPNGEPRP, the “shrunken log2 fold change” value worked out at 0.137.

For RRIRCRPPRLPRPRPRPKDIPRP, the “shrunken log2 fold change” value was -0.0796. In the case of RRIRDRPPRLPRPRPRPHHQPRP, the “shrunken log2 fold change” value is -0.0302.

On to RRIRERPPRLPRPRPRPTFPPRP, for which the “shrunken log2 fold change” value was -0.44. For RRIRGRPPRLPRPRPRPLNPPRP, the “shrunken log2 fold change” value amounted to 0.215. RRIRPRPPRLPRPRPRPTPIPRP: the “shrunken log2 fold change” value is 0.336. Take RRIRTRPPRLPRPRPRPADTPRP: the “shrunken log2 fold change” value was -0.215.

Take RRIRARPPRLPRPRPRPHDGPRP: the “shrunken log2 fold change” value was determined as 0.373. In the case of RRIRIRPPRLPRPRPRPDHHPRP it was -1.37; in that of RRIRIRPPRLPRPRPRPTQSPRP, 0.575. For the sequence RRIRNRPPRLPRPRPRPLCSPRP, the “shrunken log2 fold change” value is -0.0294. Turning to RRIRVRPPRLPRPRPRPLCFPRP, the “shrunken log2 fold change” value is 0.258. Consider RRIRHRPPRLPRPRPRPRQMPRP, for which the “shrunken log2 fold change” value is -0.0208.

On to RRIRWRPPRLPRPRPRPYPFPRP, for which the “shrunken log2 fold change” value is -0.0811. For the sequence RRIRSRPPRLPRPRPRPELMPRP, the “shrunken log2 fold change” value is 0.469. Take RRIRWRPPRLPRPRPRPKKDPRP: the “shrunken log2 fold change” value is 0.223. Consider RRIRMRPPRLPRPRPRPFFWPRP, for which the “shrunken log2 fold change” value was determined as 0.593. With RRIRGRPPRLPRPRPRPFKSPRP, the “shrunken log2 fold change” value was determined as 0.08. In the case of RRIRLRPPRLPRPRPRPARFPRP, the “shrunken log2 fold change” value is 0.0674.

For RRIRTRPPRLPRPRPRPVWQPRP, the “shrunken log2 fold change” value came to 0.256. Regarding RRIRVRPPRLPRPRPRPWFFPRP, the “shrunken log2 fold change” value is -0.148.

As for RRIRYRPPRLPRPRPRPMLRPRP, the “shrunken log2 fold change” value is -0.256.

For the sequence RRIRCRPPRLPRPRPRPPNRPRP, the “shrunken log2 fold change” value was 0.444. Regarding RRIRVRPPRLPRPRPRPDCNPRP, the “shrunken log2 fold change” value is -0.497. Take RRIRARPPRLPRPRPRPMKVPRP: the “shrunken log2 fold change” value was -0.0785. The result for RRIRHRPPRLPRPRPRPGDNPRP reads -0.0143; that for RRIRMRPPRLPRPRPRPNYEPRP, -0.122. As for RRIRFRPPRLPRPRPRPLVPPRP, the “shrunken log2 fold change” value worked out at 0.338. With RRIRWRPPRLPRPRPRPHVTPRP, the “shrunken log2 fold change” value is -0.264. For the sequence RRIRFRPPRLPRPRPRPPCNPRP, the “shrunken log2 fold change” value is -0.284. In the case of RRIRMRPPRLPRPRPRPQAEPRP, the “shrunken log2 fold change” value was 3.28. As for RRIRERPPRLPRPRPRPHPMPRP, the “shrunken log2 fold change” value was -0.334. Consider RRIRMRPPRLPRPRPRPDISPRP, for which the “shrunken log2 fold change” value is -0.0568. RRIRFRPPRLPRPRPRPRVTPRP: the “shrunken log2 fold change” value is 0.42. RRIRVRPPRLPRPRPRPEVAPRP: the “shrunken log2 fold change” value came to 1.82. Turning to RRIRNRPPRLPRPRPRPGEYPRP, the “shrunken log2 fold change” value was 0.0536. For RRIRYRPPRLPRPRPRPLMDPRP, the “shrunken log2 fold change” value is -0.143. Turning to RRIRARPPRLPRPRPRPGERPRP, the “shrunken log2 fold change” value is 0.56. In the case of RRIRRRPPRLPRPRPRPPCTPRP it was 1.59; in that of RRIRERPPRLPRPRPRPWCAPRP, -0.158. With RRIRVRPPRLPRPRPRPGWVPRP, the “shrunken log2 fold change” value amounted to 0.0954.

As for RRIRNRPPRLPRPRPRPAWSPRP, the “shrunken log2 fold change” value was 0.0515. The result for RRIRKRPPRLPRPRPRPIFVPRP reads 0.471; that for RRIRVRPPRLPRPRPRPQVGPRP, 0.251; that for RRIRERPPRLPRPRPRPFAGPRP, -1.68.
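Also: peptides expressed intracellularly from a pBAD plasmid library in pooled LB shake-flask culture, induced with 0.3% L-arabinose, DNA abundance read by NGS, three biological replicates, DESeq2 with apeglm shrinkage.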
